Biological target: Arabidopsis thaliana Fatty Acid Thioesterase A (FatA) (Arabidopsis thaliana) (UniProt Q42561)
Assay: crystal structure

Arabidopsis thaliana Fatty Acid Thioesterase A (FatA) (from UniProt Q42561 75-362) (enzyme)
stoichiometry N: 2

From publication doi:10.1101/2024.12.23.629660
